The DeepSol protein solubility set

Assay: soluble on expression in E. coli; label from the status in PepcDB or PDB records

| Sequence | soluble on expression in E. coli |
| --- | --- |
| MGSDKIHHHHHHMSALLEVKGLNVSFRQDGRISQAVRGVSFTVNRGETVALVGESGSGKSVSALSTVSLLGDSAIVEGSVTYDGQEMIGASEQRLMDVRGNDISFIFQEPMTSLNPLHTIRKQMAESLALHQGLVGAAALERILELLVKVGIRDPETRLDAYPHQLSGGQRQRVMIAMALANKPDILIADEPTTALDVTIQAQILELLADLQREENMGMLFITHDLGIVRRIADRVCVMKAGEIVESGSTEEIFANPRHPYTRKLLAAEPKGRPDPVPAGAEEVARTDHLRVWFPIQRGFLRRTVGHVKAVNDASISVRAGETLGIVGESGSGKTTLALAIMRLIGSEGGITFRGEDVRSWSTRELRRLRKDMQIVFQDPFGSLSPRMTCAQIISEGLAIHKVDPHRAPRELVAEVMQEVGLDPATMDRYPHEFSGGQRQRIAIARAMVLRPRLLVLDEPTSALDMTVQVQIVALLRDLQRKYGLAYLFISHDLKVVRAMSHKVIVMRQGDVIEMGETEALFTNAQTDYTRSLIAAAG | not soluble |
| PSSSQSEEKAPELPKPKKNRCFMCRKKVGLTGFDCRCGNLFCGLHRYSDKHNCPYDYKAEA | soluble |
| MKIAVLGATGRAGSAIVAEARRRGHEVLAVVRDPQKAADRLGATVATLVKEPLVLTEADLDSVDAVVDALSVPWGSGRGYLHLDFATHLVSLLRNSDTLAVFILGSASLAMPGADHPMILDFPESAASQPWYDGALYQYYEYQFLQMNANVNWIGISPSEAFPSGPATSYVAGKDTLLVGEDGQSHITTGNMALAILDQLEHPTAIRDRIVVRDADLEHHHHHH | soluble |
| MAHHHHHHMNRHNKFYAEVADELEGEDYYDDDDDDYNNDEEYEEEGEYDEAAYETTASAASPEPVHMPKSTTQATAPAAAAVRVNPYTTISPQVDDDYELLDVLLPQLHALWKTNAPTMLPLSEGEAVTALRASNYDVEPAFLQLKEKRDEERSKRGGGVLRVAAAAGPAKRASTPPTVEPPEPGGEAASDNEGNSASPSASSGRTTITLRGWKGASQRRTKQMLEMEPDKEKPDCTFVIAGHVDAGKSTTLGHLLLLLGRVSIQDVERNEKADRTHHKDSFKYAWLLDQCEEERRRGVTIDSGSFCFETEHRRVHILDAPGHKDFVLNMISSATQADAALLVVTATNSEFETGLHHGTKSHLLVLKTLGVGSIVVAVNKMDAVAYSQERYDYVVRELQLLLKQTRIPEEAIIGFCPISGMTGVNITQRGAKETPWYHDLSLIEMIDRCPLESRLVNSPLRLSLQDVQGTTLYAKVESGRLFTGDMVHFVPSEVRVTIKSIQKPTVAGPVLVAFAGETVEISTNSSVTGLYPGCVGCEPNLLIRSSTDFEAHIQTFRTLTKAILPGASFTIIVHALTVRVHVAALISKMDSKTGNWSKGMVKCVPPAAQAMMLFRAESPVALEPATECRALGRFVLQQDGETVAGGLVTRVVDKA | not soluble |
| MEKMIITAAICGAEVLKEHNPAVPYTVEECVREAKSAYDAGASIIHLHVRYDDGTPTQDRNRFKEVMEAIKAVCPDVIIQPSTGGAVGMTNDERLQPTELFPEMATLDCGTLNFGGDEVFTNTENTIKYFGEKMIERGIKPELEVFDKSMIDMALRLHRKGYIQSPMHFDFVMGVNGGISGEMRDFVFLRESIPADATYTVAGVGRYEFPLAALAIIDGGHVRVGFEDNVYISKGVLARSNGELVEKVVRMAKEMGREIATPAEARRILGLSK | soluble |
| MYDWFKQMRKESPVYYDGKVWNLFKYEDCKMVLNDHKRFSSNLTGYNDKLEMLRSGKVFFDIPTRYTMLTSDPPLHDELRNLTADAFNPSNLPVDFVREVTVKLLSELDEEFDVIESFAIPLPILVISKMLGINPDVKKVKDWSDLVALRLGRADEIFSIGRKYLELISFSKKELDSRKGKEIVDLTGKIANSNLSELEKEGYFILLMIAGNETTTNLIGNAIEDFTLYNSWDYVREKGALKAVEEALRFSPPVMRTIRVTKEKVKIRDQVIDEGELVRVWIASANRDEEVFKDPDSFIPDRTPNPHLSFGSGIHLCLGAPLARLEARIALEEFAKKFRVKEIVKKEKIDNEVLNGYRKLVVRVERT | soluble |
| MEIEVKFRVNFEDIKRKIEGLGAKFFGIEEQEDVYFELPSPKLLRVRKINNTGKSYITYKEILDKRNEEFYELEFEVQDPEGAIELFKRLGFKVQGVVKKRRWIYKLNNVTFELNRVEKAGDFLDIEVITSNPEEGKKIIWDVARRLGLKEEDVEPKLYIELINGLEHHHHHH | soluble |
| MGSDKIHHHHHHMTIGLSCNALKYGGGLERYAIDLARGLADAGVRPLVFARSFDSSVPEYQCVEPRRINVSFLPGKCRDAWFSWRLRAARRAAPVDVLIGCNRVDSSDIAICGGTHLGFLDAIGRMPTFSDRRQIALERRQYARARFVVAHSMLMRDELRRFYGLSDDKIRVLFPPVDAARFTPVDAVRRAELRTRFGFADDEVVLLFPSSSHERKGLPLIEAILRDAGPRVVVAVAGRPPERTSERLRYVGYVKDIEDGYRAADFTILASKYEPFGLVGVESVMCGTPVILPSNIGCCDAIAPSAKLVFAPGDAAGLRGMLDEAVRRVRAGAVRVESGAAARAAIQYDPSVARHVAQLLDLAAEAASDRRNGGR | not soluble |
| MVSLRELRGGLMSNKYCQALVELRNKPAHELKEVGDQWRTPDNIFWGINTLFGPFVLDLFTDGDNAKCAAYYTAEDNALAHDWSERLAELKGAAFGNPPYPWLEHHHHHH | not soluble |
| MSLTRFQDRQEGERVVDFYMIRDREVKRASNGTDYLNLTLERKLEYIPARLWDATEQHKQALIRRAVVKVDGVVTVYRQQKQLNIQRIRLATDEDPVTVAELISKPGLSREELWHELRMIIEEIQDETLLKLVKTMLGKKEIRERFTTIPASKATHHPYYAGLLEHVVEVCQSILQLSLIYGTINRDVVIAAAILHDIGKVAALHDPFAPEYTDEGEMIGHVVLGVELINQTAQELGISMDEPILLAVKHCILSQREQDEGATSFVYGPKTKEAILLAALDQLNGRLNSFELMASHAEERWTYSPLFKRKMFTPDNDEGHHHHHH | soluble |
| MIKYSIRGENLEVTEAIRDYVVSKLEKIEKYFQPEQELDARINLKVYREKTAKVEVTIPLGSITLRAEDVSQDMYGSIDLVTDKIERQIRKNKTKIERKNKNKVATGQLFTDALVEDSNIVQSKVVRSKQIDLKPMDLEEAILQMDLLGHDFFIYVDVEDQTTNVIYRREDGEIGLLEVKESAAALEHHHHHH | soluble |
| MSLPEYDPDKYRGIDVSYVNICMRRAWLSLHEIFYVRDSYYVSDGAYLADINRKGLPISTGRSRMDNVQIHKDFIMVHEYKRGYKMIKADKMQILHYMYIIKLKENLDIKGKLHFLGSKKVVDIELNDENLNELYKSYENIDKLKDMAKPPEPVRNYFCVHGCSYSDFCWCEGHHHHHH | soluble |
| MKKEEMDVVSLRIIKLYFLGIRELNFPDYNKRFQQKDMELFIQLADMMENLPNLDEQLIYELEELKDYLFYVKTEKYSLTVHDMFLEMKSELEKII | not soluble |
| MYNNSAPYLNHSSLNTVRKKVVTVRRVLPSLPPPPPPPPSLYPPCSVFKVPYIPQRVYRSINSTLYNNQSFASSSRGFYRKQKPIPKSHPKHQEHHHHAKASVSTPVHSSSTSRNSSVAPTPQRTVSTSSSSSSAATSARVSEDESDSDSTPGEVQRRKTSVLSNDKRRRRASFSSTSIQSSPERQRDVSSSSRTSSSSSTSSMKQEETADEKSRKRKLIMSSDESSTTGSTATSVVSSRQSSLEPQQEKTDGEPPKKKSQTDFISERVSKIEGEERPLPEPVETSGPIIGDSSYLPYKIVHWEKAGIIEMNLPANSIRAHEYHPFTTEHCYFGIDDPRQPKIQIFDHSPCKSEPGSEPLKITPAPWGPIDNVAETGPLIYMDVVTAPKTVQKKQKPRKQVFEKDPYEYYEPPPTKRPAPPPRFKKTFKPRSEEEKKKIIGDCEDLPDLEDQWYLRAALNEMQSEVKSADELPWKKMLTFKEMLRSEDPLLRLNPIRSKKGLPDAFYEDEELDGVIPVAAGCSRARPYEKMTMKQKRSLVRRPDNESHPTAIFSERDETAIRHQHLASKDMRLLQRRLLTSLGDANNDFFKINQLKFRKKMIKFARSRIHGWGLYAMESIAPDEMIVEYIGQTIRSLVAEEREKAYERRGIGSSYLFRIDLHHVIDATKRGNFARFINHSCQPNCYAKVLTIEGEKRIVIYSRTIIKKGEEITYDYKFPIEDDKIDCLCGAKTCRGYLN | soluble |
